Data published in patent publication US20150329644.

Tests used:
[1] = target: T1, GST-NP.d5 (NPAC residues 262-553, dehydrogenase domain)
T1 chain: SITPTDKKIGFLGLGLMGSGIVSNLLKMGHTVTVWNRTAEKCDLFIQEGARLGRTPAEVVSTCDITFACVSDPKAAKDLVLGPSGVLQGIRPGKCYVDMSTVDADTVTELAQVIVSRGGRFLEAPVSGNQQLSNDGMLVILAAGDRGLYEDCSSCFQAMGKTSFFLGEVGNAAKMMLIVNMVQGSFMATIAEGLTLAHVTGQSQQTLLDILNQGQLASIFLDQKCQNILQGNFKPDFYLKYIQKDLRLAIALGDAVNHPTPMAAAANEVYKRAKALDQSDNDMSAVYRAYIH

[2] = target: T2, GST-NP.d8 (NPAC residues 188-252)
T2 chain: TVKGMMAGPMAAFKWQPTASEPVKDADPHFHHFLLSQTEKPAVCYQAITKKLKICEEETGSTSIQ

[3] = target: T3, GST-NP.d2 (NPAC residues 1-252)
T3 chain: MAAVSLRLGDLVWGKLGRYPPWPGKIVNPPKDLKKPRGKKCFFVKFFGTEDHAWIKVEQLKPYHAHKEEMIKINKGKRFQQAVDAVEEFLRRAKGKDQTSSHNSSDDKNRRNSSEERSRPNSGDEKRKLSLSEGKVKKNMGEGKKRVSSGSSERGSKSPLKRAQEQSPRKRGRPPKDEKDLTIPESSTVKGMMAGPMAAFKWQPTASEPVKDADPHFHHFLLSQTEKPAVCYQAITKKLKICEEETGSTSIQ

[4] = target: T4, GST-NP.d4 (NPAC residues 152-553)
T4 chain: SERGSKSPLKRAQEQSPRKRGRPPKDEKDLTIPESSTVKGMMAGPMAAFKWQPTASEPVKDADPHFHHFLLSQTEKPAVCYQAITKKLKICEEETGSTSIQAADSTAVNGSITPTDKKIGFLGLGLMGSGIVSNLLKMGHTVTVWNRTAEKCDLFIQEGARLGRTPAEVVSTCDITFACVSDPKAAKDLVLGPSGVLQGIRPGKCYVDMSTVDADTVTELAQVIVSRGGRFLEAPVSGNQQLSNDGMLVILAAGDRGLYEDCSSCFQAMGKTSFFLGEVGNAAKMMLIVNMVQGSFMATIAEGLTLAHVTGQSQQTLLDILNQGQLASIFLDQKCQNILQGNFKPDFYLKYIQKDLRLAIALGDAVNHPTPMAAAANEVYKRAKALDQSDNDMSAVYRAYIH

[5] = target: T5, GST-NP.d1 (NPAC residues 1-150, PWWP domain)
T5 chain: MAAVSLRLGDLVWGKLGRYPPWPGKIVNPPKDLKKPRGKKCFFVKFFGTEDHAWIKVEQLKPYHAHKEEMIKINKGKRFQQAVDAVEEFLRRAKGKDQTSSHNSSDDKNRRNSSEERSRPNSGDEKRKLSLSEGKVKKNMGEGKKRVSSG

[6] = target: T6, GST-NP.d3 (NPAC residues 152-252, linker region)
T6 chain: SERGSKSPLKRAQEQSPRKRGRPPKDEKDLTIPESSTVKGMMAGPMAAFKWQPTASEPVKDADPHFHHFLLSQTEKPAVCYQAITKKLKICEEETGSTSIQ

[7] = target: T7, GST-NP.d7 (NPAC residues 152-186, containing the AT hook motif)
T7 chain: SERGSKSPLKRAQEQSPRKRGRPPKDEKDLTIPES

[8] = target: T8, GST-NP.d9 (NP.d3, NPAC residues 152-252, with deletion of amino acids 214-222)
T8 chain: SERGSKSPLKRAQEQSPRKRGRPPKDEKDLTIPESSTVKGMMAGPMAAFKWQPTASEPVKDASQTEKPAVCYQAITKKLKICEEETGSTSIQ

[9] = target: T9, GST-NP.d6 (NPAC with deletion of the linker region, residues 152-252)
T9 chain: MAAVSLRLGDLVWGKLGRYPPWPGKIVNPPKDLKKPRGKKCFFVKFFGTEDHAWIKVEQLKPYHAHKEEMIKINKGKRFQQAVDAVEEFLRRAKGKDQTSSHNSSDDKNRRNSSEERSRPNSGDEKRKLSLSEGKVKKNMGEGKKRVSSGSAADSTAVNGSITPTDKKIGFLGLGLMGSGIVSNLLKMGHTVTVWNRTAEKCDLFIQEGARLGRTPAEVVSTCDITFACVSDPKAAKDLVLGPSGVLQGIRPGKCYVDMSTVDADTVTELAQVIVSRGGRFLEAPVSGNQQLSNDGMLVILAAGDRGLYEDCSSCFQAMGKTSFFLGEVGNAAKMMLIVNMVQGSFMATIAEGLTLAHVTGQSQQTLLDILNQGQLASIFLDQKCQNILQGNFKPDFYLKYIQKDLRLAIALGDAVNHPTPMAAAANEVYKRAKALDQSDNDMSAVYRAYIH

B1: Recombinant 6x his tagged full-length LSD2 (protein)
chain: HHHHHHMATPRGRTKKKASFDHSPDSLPLRSSGRQAKKKATETTDEDEDGGSEKKYRKCEKAGCTATCPVCFASASERCAKNGYTSRWYHLSCGEHFCNECFDHYYRSHKDGYDKYTTWKKIWTSNGKTEPSPKAFMADQQLPYWVQCTKPECRKWRQLTKEIQLTPQIAKTYRCGMKPNTAIKPETSDHCSLPEDLRVLEVSNHWWYSMLILPPLLKDSVAAPLLSAYYPDCVGMSPSCTSTNRAAATGNASPGKLEHSKAALSVHVPGMNRYFQPFYQPNECGKALCVRPDVMELDELYEFPEYSRDPTMYLALRNLILALWYTNCKEALTPQKCIPHIIVRGLVRIRCVQEVERILYFMTRKGLINTGVLSVGADQYLLPKDYHNKSVIIIGAGPAGLAAARQLHNFGIKVTVLEAKDRIGGRVWDDKSFKGVTVGRGAQIVNGCINNPVALMCEQLGISMHKFGERCDLIQEGGRITDPTIDKRMDFHFNALLDVVSEWRKDKTQLQDVPLGEKIEEIYKAFIKESGIQFSELEGQVLQFHLSNLEYACGSNLHQVSARSWDHNEFFAQFAGDHTLLTPGYSVIIEKLAEGLDIQLKSPVQCIDYSGDEVQVTTTDGTGYSAQKVLVTVPLALLQKGAIQFNPPLSEKKMKAINSLGAGIIEKIALQFPYRFWDSKVQGADFFGHVPPSASKRGLFAVFYDMDPQKKHSVLMSVIAGEAVASVRTLDDKQVLQQCMATLRELFKEQEVPDPTKYFVTRWSTDPWIQMAYSFVKTGGSGEAYDIIAEDIQGTVFFAGEATNRHFPQTVTGAYLSGVREASKIAAF
[1]
  LSD2 activity on nucleosome substrates (nucleosome demethylation assay, immunoblot): Neither the PWWP domain (SEQ ID NO: 63) (NP.d1, residues 1-150) nor the dehydrogenase domain (NP.d5, residues 262-553) stimulated LSD2
[2]
  LSD2 histone demethylase activity on nucleosomal substrates: NP.d8, but not NP.d7 or NP.d9, significantly enhances LSD2 histone demethylase activity on nucleosomal substrates
[3]
  LSD2 activity on nucleosome substrates (nucleosome demethylation assay, immunoblot): significantly enhance LSD2 demethylase activity
[4]
  LSD2 activity on nucleosome substrates (nucleosome demethylation assay, immunoblot): significantly enhance LSD2 demethylase activity
[5]
  LSD2 activity on nucleosome substrates (nucleosome demethylation assay, immunoblot): Neither the PWWP domain (SEQ ID NO: 63) (NP.d1, residues 1-150) nor the dehydrogenase domain (NP.d5, residues 262-553) stimulated LSD2
[6]
  LSD2 activity on nucleosome substrates (nucleosome demethylation assay, immunoblot): significantly enhance LSD2 demethylase activity
[7]
  LSD2 histone demethylase activity on nucleosomal substrates: NP.d8, but not NP.d7 or NP.d9, significantly enhances LSD2 histone demethylase activity on nucleosomal substrates
[8]
  LSD2 histone demethylase activity on nucleosomal substrates: NP.d8, but not NP.d7 or NP.d9, significantly enhances LSD2 histone demethylase activity on nucleosomal substrates
[9]
  LSD2 activity on nucleosome substrates (nucleosome demethylation assay, immunoblot): deletion of the linker region (residues 152-252) abolishes cofactor activity (NP.d6, lane 10)
